Assay [1] has as its target dimeric VEGFR1/Fc chimera (R&D Systems Cat #321-FL) (UniProt P17948). In words: competition ELISA: VEGFR1-Fc (0.1 ug/ml) pre-mixed with Nanobody, binding to coated VEGF165 (0.2 ug/ml), detection with HRP anti-human IgG. (In an ELISA, binding on a coated surface is turned into a signal by an enzyme label.)
Assay [2] has as its target T1, Recombinant human PDGFRβ/Fc chimera (R&D Systems Cat #385 PR) (human, UniProt P09619 33-532).
T1 construct: extracellular domain; Bought reagent; also called PDGFRP-Fc; not shown: Fc part of the bought chimera (captured and detected with anti-human IgG)
In words: ELISA ligand competition with PDGFRβ-Fc and coated PDGF-BB (FIG. 5). How it is done: Clones tested in the PDGFRβ binding assay were also screened for their ability to block PDGF-BB binding to PDGFRβ-Fc. For this, Nanobody containing periplasmic extracts, or selected purified Nanobodies, were used in an ELISA-based ligand competition setup. In short, 1.0 ug/ml (80 nM) recombinant human PDGF-BB (R&D Systems #220-BB) was coated in 96 well Maxisorp microtiter plates (Nunc) and blocked with 4% Marvel skimmed milk in PBS. In parallel, 1 ug/ml (12 nM) PDGFRβ-Fc chimera was incubated with periplasmic extracts or purified Nanobody. After 1 hour, the receptor-Nanobody pre-mixes were incubated 1 hour with the coated ligand. Bound PDGFRβ-Fc was detected using HRP-conjugated goat anti-human IgG (Jackson Immunoresearch, Cat #109-035-098). Blocking activity was determined as loss of OD signal, as compared to wells where no Nanobodies, or irrelevant Nb, had been added.

The target of another assay is T2, PDGFRb on HeLa cells (human, UniProt P09619 33-1106).
T2 construct: whole, on cells; HeLa cells were not transfected
In words: immunofluorescence on HeLa cells, 40 nM Nanobody, detection with mouse anti-myc and goat anti-mouse Alexa 488; PDGFR co-stained with a commercial antibody. Here is the method: 40 nM of nanobody was added in medium and incubated 30 minutes at room temperature. Cells were put on ice to stop internalization and washed 3 times with ice-cold PBS. Cells were fixed by incubation for 30 minutes with 4% PFA at room temperature. After washing with PBS amine groups were blocked by incubation for 10 min. with 100 mM glycin in PBS at room temperature. After washing cells were permeabilized by incubation for 5 min. with 0.2% TritonX-100 in PBS at room temperature.
Cells were blocked by incubation in 2% Marvell/PBS for 15 minutes. Subsequently nanobodies were detected by incubation for 1 hour with mouse anti-myc (9E10) antibody in 2% Marvell/PBS and after washing 1 hour with goat-anti-mouse-alexa-488 in 2% Marvell/PBS in the dark. After washing coverslips were mounted with 4 ul mowiol and let to dry for at least 30 minutes. Dry slides were stored at −20 C.

Assay [3] concerns the target T1, Recombinant human PDGFRβ/Fc chimera …. In words: phage ELISA on PDGFRβ-Fc (0.1 ug/ml) captured by coated anti-human IgG, detection with HRP anti-M13. How it is done: In order to determine binding specificity to PDGFRβ-Fc, the clones were tested in an ELISA binding assay setup, using the monoclonal phage pools. Shortly, 1 ug/ml of Fc-capturing Ab (Rabbit anti-human IgG, DAKO # A423) was coated on Maxisorp ELISA plates (Nunc) and free binding sites were blocked using 4% Marvel skimmed milk in PBS. Next, 0.1 ug/ml receptor in 2% Marvel/PBS was captured. After a wash step with PBS, 10 ul of supernatant from the monoclonal phage inductions of the different clones in 100 ul 2% Marvel PBS were allowed to bind to the captured PDGFRP-Fc. […] Binding specificity was determined based on OD values compared to controls having received no phage.

The target in assay [4] is T3, Recombinant human FGFR4/Fc chimera (R&D Systems Cat #685 FR) (human, UniProt P22455 22-369).
T3 construct: extracellular domain; Bought reagent; also called Fc-FGFR4; not shown: Fc part of the bought chimera (detected with anti-human IgG)
T3 sequence (looked up): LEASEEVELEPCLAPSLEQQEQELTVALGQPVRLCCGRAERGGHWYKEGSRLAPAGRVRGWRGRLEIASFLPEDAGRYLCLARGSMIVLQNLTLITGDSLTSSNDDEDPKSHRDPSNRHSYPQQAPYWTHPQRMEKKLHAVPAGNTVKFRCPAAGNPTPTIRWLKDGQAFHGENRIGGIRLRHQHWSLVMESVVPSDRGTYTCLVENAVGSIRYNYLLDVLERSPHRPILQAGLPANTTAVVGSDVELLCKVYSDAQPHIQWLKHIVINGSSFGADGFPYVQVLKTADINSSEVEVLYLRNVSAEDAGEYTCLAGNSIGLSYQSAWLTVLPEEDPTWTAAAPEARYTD
In words: ELISA: periplasmic extract on coated FGFR4-Fc (500 ng/ml). Here is the method: In order to determine binding specificity to FGFR4, the clones were tested in an ELISA binding assay setup, using the monoclonal […]. Shortly, 500 ng/ml of Fc-FGFR4 (R&D Systems Cat #685 FR) was coated on Maxisorp ELISA plates (Nunc) and free binding sites were blocked using 4% Marvel skimmed milk in PBS. After a wash step with PBS, 10 ul of periplasmic extract from the monoclonal inductions of the different clones in 100 ul 2% Marvel PBS were allowed to bind to the FGFR4-Fc. […] 53-G3 was used as a reference since it was selected against PDGFRβ-Fc.

Results on 4 molecules are retold here after US20110282033A1 (Ablynx, published 2011).

T1 sequence (P09619 33-532, change not shown): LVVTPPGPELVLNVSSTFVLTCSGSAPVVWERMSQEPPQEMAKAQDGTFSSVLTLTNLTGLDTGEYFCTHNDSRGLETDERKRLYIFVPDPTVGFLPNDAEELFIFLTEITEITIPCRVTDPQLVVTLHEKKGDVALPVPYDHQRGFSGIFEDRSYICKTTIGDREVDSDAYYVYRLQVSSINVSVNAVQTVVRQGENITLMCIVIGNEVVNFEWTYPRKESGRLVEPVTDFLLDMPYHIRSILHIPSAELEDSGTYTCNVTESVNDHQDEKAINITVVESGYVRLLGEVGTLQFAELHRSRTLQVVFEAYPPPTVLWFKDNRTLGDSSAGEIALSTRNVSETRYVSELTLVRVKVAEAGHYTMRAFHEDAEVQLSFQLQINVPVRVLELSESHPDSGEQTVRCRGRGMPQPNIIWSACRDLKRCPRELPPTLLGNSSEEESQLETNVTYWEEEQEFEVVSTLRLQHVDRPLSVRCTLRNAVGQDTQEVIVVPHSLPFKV
T2 sequence (P09619 33-1106): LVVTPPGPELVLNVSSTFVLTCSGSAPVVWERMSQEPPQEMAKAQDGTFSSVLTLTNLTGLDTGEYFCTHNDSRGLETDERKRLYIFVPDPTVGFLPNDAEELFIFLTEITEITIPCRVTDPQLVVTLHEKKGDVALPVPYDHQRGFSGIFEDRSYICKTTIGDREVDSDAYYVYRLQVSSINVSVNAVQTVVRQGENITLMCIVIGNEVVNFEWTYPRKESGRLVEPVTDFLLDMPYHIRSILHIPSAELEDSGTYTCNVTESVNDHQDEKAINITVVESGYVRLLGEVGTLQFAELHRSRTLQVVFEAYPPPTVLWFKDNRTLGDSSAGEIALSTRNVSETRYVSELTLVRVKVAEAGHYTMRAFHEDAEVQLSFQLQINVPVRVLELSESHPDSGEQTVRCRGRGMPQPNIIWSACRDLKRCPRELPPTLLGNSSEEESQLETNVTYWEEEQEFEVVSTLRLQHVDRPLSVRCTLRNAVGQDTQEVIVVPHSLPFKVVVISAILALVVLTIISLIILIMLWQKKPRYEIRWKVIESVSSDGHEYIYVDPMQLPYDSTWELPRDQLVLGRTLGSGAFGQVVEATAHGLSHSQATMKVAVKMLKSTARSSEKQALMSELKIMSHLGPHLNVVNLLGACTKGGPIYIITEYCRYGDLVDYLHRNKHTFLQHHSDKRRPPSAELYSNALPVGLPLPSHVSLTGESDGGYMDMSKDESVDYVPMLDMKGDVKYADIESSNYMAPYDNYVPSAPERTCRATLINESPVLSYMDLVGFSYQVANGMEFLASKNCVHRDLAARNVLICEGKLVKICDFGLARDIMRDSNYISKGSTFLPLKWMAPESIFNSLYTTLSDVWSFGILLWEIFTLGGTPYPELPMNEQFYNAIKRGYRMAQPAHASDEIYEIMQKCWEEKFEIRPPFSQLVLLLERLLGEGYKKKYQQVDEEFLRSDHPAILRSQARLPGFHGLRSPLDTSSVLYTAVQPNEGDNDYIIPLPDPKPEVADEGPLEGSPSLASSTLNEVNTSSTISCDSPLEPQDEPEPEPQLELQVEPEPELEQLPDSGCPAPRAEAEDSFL
dimeric VEGFR1/Fc chimera (R&D Systems Cat #321-FL), sequence (P17948 27-758 limits assumed, change not shown): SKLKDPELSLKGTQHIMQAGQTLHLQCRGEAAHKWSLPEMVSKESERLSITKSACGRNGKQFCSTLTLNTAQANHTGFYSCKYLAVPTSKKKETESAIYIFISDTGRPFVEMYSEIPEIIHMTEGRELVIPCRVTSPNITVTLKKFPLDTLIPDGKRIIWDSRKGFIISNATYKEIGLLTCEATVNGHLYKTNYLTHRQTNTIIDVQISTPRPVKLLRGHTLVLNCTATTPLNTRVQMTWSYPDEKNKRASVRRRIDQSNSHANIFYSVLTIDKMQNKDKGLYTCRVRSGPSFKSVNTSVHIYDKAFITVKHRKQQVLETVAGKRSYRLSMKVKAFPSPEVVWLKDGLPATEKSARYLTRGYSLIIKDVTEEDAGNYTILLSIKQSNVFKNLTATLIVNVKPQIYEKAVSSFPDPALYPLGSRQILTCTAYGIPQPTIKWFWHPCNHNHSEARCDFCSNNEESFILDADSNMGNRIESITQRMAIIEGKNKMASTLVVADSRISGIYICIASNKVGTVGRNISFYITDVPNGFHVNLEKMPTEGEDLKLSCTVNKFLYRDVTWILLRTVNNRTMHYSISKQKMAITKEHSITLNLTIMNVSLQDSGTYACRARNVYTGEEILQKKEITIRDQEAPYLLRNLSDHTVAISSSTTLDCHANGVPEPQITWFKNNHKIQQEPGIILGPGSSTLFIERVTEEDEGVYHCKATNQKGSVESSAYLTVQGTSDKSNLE

B1: 46-F11 (VHH)
VHH: EVQLVESGGGLVQPGGSLRLSCAASGFTFSSYAMSWVRQAPGKELEWVSGINSGGDRTVNADSVKGRFTVSRDNAKNTLYLQMNSLKPEDTALYYCAKSIPPTDDRNYWGQGTQVTVSS
B1 registered an IC50 (read off the curve) in assay [1] of 1 nM.

B2: 42-H5 (VHH)
VHH: EVQLVESGGGLVQPGGSLTLSCAASGFTFSSYAMSWVRQAPGKGLELVSDINSGGISTYYADSVKGRFTISRDNAKNTLYLQMNSLKPEDTAVYYCKTDTLVAGTDDYWGQGTRVTVSS
notes: Purified Nanobody; Also used as negative control in the PDGFRβ assays
With B2, in assay [2], the binding result is “no binding (tested: 50 nM)”.

B3: 53-G3 (VHH)
VHH: EVQLVESGGGLVQAGGSLRLSCAASRRTFSSYAMGWFRQAPGKEREIVADISWNGSRTYYADSAKGRFTISRDNAKNTVYLQMNSLKPEDTAVYYCAAALFGGLGRAPSTHEYAYWGQGTQVTVSS
notes: Purified Nanobody; Also used as negative control in the FGFR4 assays
With B3, the binding result with PDGFRb on HeLa cells was “binds”; in assay [3], “binds”; in assay [4], “no binding”.

B4: 53-B5 (VHH)
VHH: EVQLVESGGGLVQAGGSLRLSCAASRRTFSSYAMGWFRQAPGKEREVVADISWNGSRTYYADSAKGRFTISRDNAKNTVYLQMNSLKPEDTAVYYCAAALFGGLGRAPSTHEYAYWGQGTQVTVSS
notes: Purified Nanobody
As for B4, the binding result (in the assay with PDGFRb on HeLa cells; in assay [3]) was “binds” throughout.
